Measurements published in article PMC4755848 (Proteins, 2016).

What was measured:
[1] = target: BaiE (bile acid 7α-dehydratase) from Clostridium scindens ATCC35704 (Clostridium scindens ATCC35704) (UniProt P19412); experiment: SEC
[2] = target: BaiE (bile acid 7α-dehydratase) from Clostridium hiranonis DSM13275 (Clostridium hiranonis DSM13275); experiment: SEC
[3] = target: BaiE (bile acid 7α-dehydratase) from Clostridium hylemonae DSM15053 (Clostridium hylemonae DSM15053); experiment: SEC
purified protein [4] = substrate: C[C@H](CCC(=O)SCCNC(=O)CCNC(=O)[C@H](O)C(C)(C)COP(=O)(O)OP(=O)(O)OC[C@H]1O[C@@H](n2cnc3c(N)ncnc32)[C@H](O)[C@@H]1OP(=O)(O)O)[C@H]1CC[C@H]2[C@@H]3[C@H](O)CC4=CC(=O)CC[C@]4(C)[C@H]3CC[C@]12C; experiment: purified protein; assay type: biochemical, Peptacetobacter hiranonis; settings: 20 mM Tris-HCl pH 7.3, 25 °C
purified protein [5] = substrate: C[C@H](CCC(=O)O)[C@H]1CC[C@H]2[C@@H]3[C@H](O)CC4=CC(=O)CC[C@]4(C)[C@H]3CC[C@]12C; experiment: purified protein; assay type: biochemical, Peptacetobacter hiranonis; settings: 20 mM Tris-HCl pH 7.3, 25 °C
purified protein [6] = substrate: C[C@H](CCC(=O)SCCNC(=O)CCNC(=O)[C@H](O)C(C)(C)COP(=O)(O)OP(=O)(O)OC[C@H]1O[C@@H](n2cnc3c(N)ncnc32)[C@H](O)[C@@H]1OP(=O)(O)O)[C@H]1CC[C@H]2[C@@H]3[C@H](O)CC4=CC(=O)CC[C@]4(C)[C@H]3CC[C@]12C; experiment: purified protein; assay type: biochemical, [Clostridium] scindens; settings: 20 mM Tris-HCl pH 7.3, 25 °C
purified protein [7] = substrate: C[C@H](CCC(=O)O)[C@H]1CC[C@H]2[C@@H]3[C@H](O)CC4=CC(=O)CC[C@]4(C)[C@H]3CC[C@]12C; experiment: purified protein; assay type: biochemical, [Clostridium] scindens; settings: 20 mM Tris-HCl pH 7.3, 25 °C
SEC = target: the molecule itself; experiment: SEC
purified protein [8] = substrate: C[C@H](CCC(=O)SCCNC(=O)CCNC(=O)[C@H](O)C(C)(C)COP(=O)(O)OP(=O)(O)OC[C@H]1O[C@@H](n2cnc3c(N)ncnc32)[C@H](O)[C@@H]1OP(=O)(O)O)[C@H]1CC[C@H]2[C@@H]3[C@H](O)CC4=CC(=O)CC[C@]4(C)[C@H]3CC[C@]12C; experiment: purified protein; assay type: biochemical, [Clostridium] hylemonae; settings: 20 mM Tris-HCl pH 7.3, 25 °C
purified protein [9] = substrate: C[C@H](CCC(=O)O)[C@H]1CC[C@H]2[C@@H]3[C@H](O)CC4=CC(=O)CC[C@]4(C)[C@H]3CC[C@]12C; experiment: purified protein; assay type: biochemical, [Clostridium] hylemonae; settings: 20 mM Tris-HCl pH 7.3, 25 °C

Molecule: BaiE (bile acid 7α-dehydratase) from Clostridium scindens ATCC35704 (from UniProt P19412 1-166) (enzyme)
- stoichiometry N [1]: 3

Molecule: BaiE (bile acid 7α-dehydratase) from Clostridium hiranonis DSM13275 (enzyme)
- stoichiometry N [2]: 3

Molecule: BaiE (bile acid 7α-dehydratase) from Clostridium hylemonae DSM15053 (enzyme)
- stoichiometry N [3]: 3

B1: BaiE_13275 (Peptacetobacter hiranonis DSM 13275) (protein)
chain: MTLEARIEALEKEIQRLNDIEAIKQLKAKYFRCLDGKLWDELETTLSPNIETSYSDGKLVFHSPKEVTEYLAAAMPKEEISMHMGHTPEITIDSENTATGRWYLEDNLIFTDGKYKNVGINGGAFYTDKYEKIDGQWYIKETGYVRIFEEHFMRDPKIHITSNMHKEK
- Km (purified protein [4]): 208.0 (40.0) μM
- kcat (purified protein [4]): 22.2 s⁻¹
- kcat/Km (purified protein [4]): 100000 M⁻¹ s⁻¹
- Km (purified protein [5]): 25.0 (1.8) μM
- kcat (purified protein [5]): 4.4 s⁻¹
- kcat/Km (purified protein [5]): 200000 M⁻¹ s⁻¹

B2: BaiE_35704 ([Clostridium] scindens ATCC 35704) (protein)
chain: MTLEERVEALEKELQKMKDIEAIKELKGKYFRCLDGKMWDELETTLSPNIVTSYSNGKLVFHSPKEVTDYLKSTMPKEEISMHMGHTPEITIDSETTATGRWYLEDKLIFTDGKYKDVGINGGAFYTDKYEKIEGQWYILETGYVRIYEEHFMRDPKIHITMNMHK
- Km (purified protein [6]): 1.2 (0.2) μM
- kcat (purified protein [6]): 15 s⁻¹
- kcat/Km (purified protein [6]): 1.25e+07 M⁻¹ s⁻¹
- Km (purified protein [7]): 11.0 (1.9) μM
- kcat (purified protein [7]): 18 s⁻¹
- kcat/Km (purified protein [7]): 1.6e+06 M⁻¹ s⁻¹

B3: BaiE (bile acid 7α-dehydratase) from Clostridium scindens VPI12708 (enzyme, UniProt P19412 1-166, looked up)
chain: MTLEERVEALEKELQEMKDIEAIKELKGKYFRCLDGKMWDELETTLSPNIVTSYSNGKLVFHSPKEVTDYLKSSMPKEEISMHMGHTPEITIDSETTATGRWYLEDRLIFTDGKYKDVGINGGAFYTDKYEKIDGQWYILETGYVRIYEEHFMRDPKIHITMNMHK
- stoichiometry N (SEC): 3
- Km (purified protein [6]): 4.0 (0.56) μM
- kcat (purified protein [6]): 98 s⁻¹
- kcat/Km (purified protein [6]): 2.45e+07 M⁻¹ s⁻¹
- Km (purified protein [7]): 9.9 (2.1) μM
- kcat (purified protein [7]): 24 s⁻¹
- kcat/Km (purified protein [7]): 2.4e+06 M⁻¹ s⁻¹

B4: BaiE_15053 ([Clostridium] hylemonae DSM 15053) (protein)
chain: MSIEERLEALEKEIQKMKDIEEIKKLKGQYFRCLDGKFWDELETTLSPNIVTSYSNGKLVFHGPKEVTDYFKKAMPREEISMHMGHTPEITIDSETTATGRWYLEDKLIFTEESKYAGSGVNGGAFYTDKYEKVDGKWYILETGYLRVYEEHFMRDPKIKITMNMHKTK
- Km (purified protein [8]): 11.4 (1.9) μM
- kcat (purified protein [8]): 12.6 s⁻¹
- kcat/Km (purified protein [8]): 1.1e+06 M⁻¹ s⁻¹
- Km (purified protein [9]): 21.0 (2.0) μM
- kcat (purified protein [9]): 18.6 s⁻¹
- kcat/Km (purified protein [9]): 900000 M⁻¹ s⁻¹
